Laboratory results reported in article PMC3536697.
Several values for one entry are separate records, joined by “and”; a condition that tells them apart may be missing. Identical values can stand only once. Values belong to the substance of their own block, whether it stands above or below them.

How the values were obtained:
Cdc13 (Candida glabrata) = experiment: competition; conditions: labeled CgTELX1 7.5 nM, Cdc13 6 nM; EMSA: 10 mM Tris-HCl pH 8.0, 2 mM MgCl2, 1 mM spermidine, 1 mM DTT, 10% glycerol, 22 C; UV crosslinking: 50 mM Hepes-NaOH pH 7.5, 10% glycerol, 30 mM …
[1] = target: Cdc13 (CST subunit);Stn1;Ten1 (Candida glabrata;Candida glabrata;Candida glabrata) (UniProt Q6FM89); experiment: competition; conditions: labeled CgTELX1 7.5 nM, CST 10 nM; EMSA: 10 mM Tris-HCl pH 8.0, 2 mM MgCl2, 1 mM spermidine, 1 mM DTT, 10% glycerol, 22 C; UV crosslinking: 50 mM Hepes-NaOH pH 7.5, 10% glycerol, 30 mM …
[2] = test system: CaStn1N;CaTen1 (Candida albicans;Candida albicans); experiment: UV crosslinking; conditions: reference; normalized to Ten1 adduct; single Iodo-dU; EMSA: 10 mM Tris-HCl pH 8.0, 2 mM MgCl2, 1 mM spermidine, 1 mM DTT, 10% glycerol, 22 C; UV crosslinking: 50 mM Hepes-NaOH pH 7.5, 10% glycerol, 30 mM …
[3] = test system: CaStn1N K98E/K170E;CaTen1 (Candida albicans;Candida albicans); experiment: UV crosslinking; conditions: single Iodo-dU; EMSA: 10 mM Tris-HCl pH 8.0, 2 mM MgCl2, 1 mM spermidine, 1 mM DTT, 10% glycerol, 22 C; UV crosslinking: 50 mM Hepes-NaOH pH 7.5, 10% glycerol, 30 mM …
[4] = target: SUMO-CgCdc13-FLAG fusion protein (Candida glabrata Cdc13) (Candida glabrata); experiment: co-sedimentation; purified CST complex on a 15-30% glycerol gradient; fractions by Western with anti-SUMO (Cdc13, Stn1) and anti-GST (Ten1); 500 kDa fraction also in serial two fold dilutions with anti-SUMO
[5] = target: SUMO-CgCdc13-FLAG fusion protein (Candida glabrata Cdc13) (Candida glabrata); experiment: Coomassie staining intensities of the subunits in SDS-PAGE against BSA standards; purified CST complex (M2 fractions); intensities assumed proportional to molecular weights
[6] = target: SUMO-CgCdc13-FLAG fusion protein (Candida glabrata Cdc13) (Candida glabrata); experiment: co-IP; extract of E. coli co-expressing SUMO-Cdc13-FG and HIS6-SUMO-Stn1 (CS) on M2 (anti-FLAG) resin; Coomassie and Western (anti-FLAG, anti-HIS6)
[7] = target: SUMO-CgCdc13-FLAG fusion protein (Candida glabrata Cdc13) (Candida glabrata); experiment: Western analysis of serial dilutions with anti-SUMO antibodies; serial three fold dilutions of the purified CST complex; SUMO tag present in both the Cdc13 and Stn1 fusions

Substance: TTAGGATCCATGAAAACTGAAGAAGGTAAACTGGTA [R1]
binding signal (fold more competitor than CgTELX1) (Cdc13 (Candida glabrata)): > 200 | binding signal (fold more competitor than CgTELX1) [1]: > 200

Substance: TCTTTAGGGAGGTACTGATGTTCTTTAGGGAGGTACTGATGT [ClTELX2]
binding signal (fold more competitor than CgTELX1) (Cdc13 (Candida glabrata)): 20 | binding signal (fold more competitor than CgTELX1) [1]: 20

Substance: C. albicans telomere IdU oligo
binding signal (fraction of WT Stn1N crosslinking) [2]: 1 | binding signal (fold reduction vs WT) [3]: 3

Substance: CGGTGTAAGGATGCACTTGAAACTCGGTGTAAGGATGCACTTGAAACT [LeTELX2]
binding signal (fold more competitor than CgTELX1) (Cdc13 (Candida glabrata)): > 200 | binding signal (fold more competitor than CgTELX1) [1]: > 200

stoichiometry N [4]: 2
Substance: SUMO-CgCdc13-FLAG fusion protein (Candida glabrata Cdc13) (natural protein)

stoichiometry N (Stn1 per Cdc13) [5]: 2 and 3 and 2.5 | stoichiometry N (Stn1 per Cdc13) [4]: 2.5 | stoichiometry N (Stn1 per Cdc13) [6]: 2 to 3 | stoichiometry N (Stn1 per Cdc13) [7]: 2.5
Substance: HIS6-SUMO-CgStn1 fusion protein (Candida glabrata Stn1) (natural protein)
